According to the DeepSol protein solubility set:

experiment: soluble on expression in E. coli; label from the status in PepcDB or PDB records

Soluble on expression in E. coli, not soluble:
MSLKITSISVQQKNKERYNIFIDEKYNFSVDEEVLARYQLMKGKTLTEADIEEIKQADMVRKGLNKAINFLSHRVRSEKEIRDYLRKQEMEPFAVDEILKKLADMDYINDVEFAELYTKTQIKTTLKGPRTIERELVEKGLTREIISQVMEEYASDIQLENATKQAMKIMKRNNKSAKKMLQQKIITDLIQKGYSSEVAKMAAIEATSELDVADEADILQKQVEKTIRKNKRYKPSIAKQKTITSLMQKGFSYDTIQSYLTENEISEGHHHHHH
MSLKKIILSIILISNYCYASDCFEITGKAYNIDPLILKAIAWNESKCKSGIKSKTNKNGTYDIGIMQINSSHLDLLSKFNISEDDLLNDACINISVAGYILASNIKSRGNTWDAVGAYNAGYFNTPNAVELRRQYAMKIYKTYNKLKNNEQIIDEGHHHHHH
MSLKKSPLTIVHLTDIHYDPEYVVGVNADCKAEACCRTLPDLAPATPETAAGYWSDYRDCDTPWHGVVDVMEHIRRQHPKIDAIYFTGDIVHHFTWNTSIETNEGAMRQVFDLMKRVFPGVPLYPVLGNHESHPANLYAPHDVEASYRMDYLYDFIADQWADWLPIKDIRPTLTEGGYYTVRTPYGVRIIGLNNNPCFVHNFWLFYSLDYFMPQLQWLHDTLLQAEWDNERVHILAHVPSYDDSCFIGWTREYRKIVERFAHIIAGQFNGHSHVDEFNLYYRRDDPSRAVSVAWNGGSTTTFTKLNPNYKVFQFDPVTFEPLEQETWMYNLTDANLTPDQRPSWYRLYSFKSYYQLPDLSVDSLHRLVQRFAQSEQQLHRYWQAKQKYSDPLLQEGCTSTCLRNALCAIVRTEHDDERACELLYERAAQSEGHHHHHH
MSLKLFCFKAIIFPIVGGSFNNGTNVFQSTVIVISLDGFRADYLYRGFTPNLLSLAERNVHVPFLIPSFPSITFPNHYTIVTGLYPESHGIVSNNFFDPVTGKQFVNSMPECNKDPTWWDKGEPIWVNAERNNVRSAVHMWPGNEVENHGYRPTYSDGFNFDTTLREKKDRILEWLDLPDKDRPQLLLAYAPHVDMVGHAFGPDSPELNIIIQEVDIVIGELIEGLKKRNIDKHVNIIFLSDHGMAPTSDNRLIWLDNMFNLSAVAHRDAWPLGGFRGESDLDDEYIYESLVNYSRSSLPSAENWNVYSKKDIPSRWHYSNNERIAPVWMIPDVGWSLVSMLDHSPELEYEPLGVHGYDNLSPVMRALFIASGSSFKNFKGKKLAPFQNTEIYGILSHILDLPAQPNNGTYEGALPLRRNRNSTKEWLLKDIEQAYSKLIEGHHHHHH
MSLKMSDIAKMAGVSKAAVSFALNGKPGVSDETRKKIFKVIKDQGYEPLRKHKKGGVRKIASISLIIIQDRTGMMNRSYASLPFFDTLVSELSQNVSGAGGQMQIVNLDINHLHEGLNNEALQQSKASIVLATDLNQKQVQLINRKLRNVIFVDNYFEYIQADFVSIDNFQGAYRAGKFIVKKGYRKIGYVASNHAISNFLQRRSGFRKAMREANIQIPPEYVFSLNPTELRGSLPALFRQKNNWPEAIFCEDDYMALRLLNALTRQGIKVPQDIAVMGFDDISEDTMVIPELTTIHVPITQIVDQAINQLQCKVADTDWLPQKCFISTKLIERESEGHHHHHH

Soluble on expression in E. coli, soluble:
MSLKISIVTSTNVYADIAKNIVGKYGSAKAIIKNSATDPHDFEPTTQDAKELSSTNIIVANGLGYDSWMNKLASSVDKKPVLVGEELMKLKKGANPHIWYSLSMPTEYVDYLVKRLSKIDSKHKAYFEANGKKYLAKINQVKALAKNSKKTDKMVFVSEPVFDYALAEAGYKIGDKDFEKAVENNTDPSPKTINRMTNDIKNKKIAFFVNNTQSSSSTVKTFVKLAKQNNIPVLNVRETIPNHTTYLNWMKENYQNLANISKEGHHHHHH
MSLKITRITVYQVDLPLEHPYWLSGGRLKFELLDATLVKLETDAGITGWGEGTPWGHTYVPAHGPGIRAGIETMAPFVLGLDPRRLLDVERAMDIALPGHLYAKSPIDMACWDIAGQAAGLPIADLMGGGSRTPRPIASSVGAKSVEETRAVIDRYRQRGYVAHSVKIGGDVERDIARIRDVEDIREPGEIVLYDVNRGWTRQQALRVMRATEDLHVMFEQPGETLDDIAAIRPLHSAPVSVDECLVTLQDAARVARDGLAEVFGIKLNRVGGLTRAARMRDIALTHGIDMFVMATGGSVLADAEALHLAATIPDHACHAVWACQDMLTVDIAGGRGPRNIDGHLHLPETPGLGVHPDEDALGDPVAVYSEGHHHHHH
MSLKKAAIITIGSELLEGLILNKNAQFLCQELKNLGYRVVKVSTVGDDLISISEEVKTLLLKVDLLILTGGLGPTQDDLTRDAVAKVLNRSLKLNEELLSKIKEKIKKYHSEIPQNIERQALVIDGAEVLDNPVGSAPGQLLTVDGKIVILLPGPPRELIPMFNALKDRLRTPDALYQVVLKYYSIPEAVLEDLLKDILYSQNIVEVATMADHVEGVRLRLTTHMKNKEYLDEMVKKILDKTGEHLYGVNDEKMEEVVVRLLKDRKKTLAVAESCTGGMLSSLVVNVPGASEVFIGGVVAYSNDLKKHILGVREDTLKKHGAVSEECVQEMTEGLKKLTGADICVSISGIAGPSGGTPEKPVGTVFIDIFEHEHITMRYNFTGDRNMIRTRSAMMALENLRKYLKGRERVEGGSHHHHHH
MSLKKAIAYMRFSSPGQMSGDSLNRQRRLIAEWLKVNSDYYLDTITYEDLGLSAFKGKHAQSGAFSEFLDAIEHGYILPGTTLLVESLDRLSREKVGEAIERLKLILNHGIDVITLCDNTVYNIDSLNEPYSLIKAILIAQRANEESEIKSSRVKLSWKKKRQDALESGTIMTASCPRWLSLDDKRTAFVPDPDRVKTIELIFKLRMERRSLNAIAKYLNDHAVKNFSGKESAWGPSVIEKLLANKALIGICVPSYRARGKGISEIAGYYPRVISDDLFYAVQEIRLAPFGISNSEGHHHHHH
MSLKKEGDATAVLIGYPSVGKSTLLNKLTGAKSEVADYDFTTLKPVPGILNYKGASIQIIDVPGIIEGAASGRGRGKEVISAVRVADLIIIVADVFNLHTIDIVKRELYEGGIRLDQKPPDVVIRKKERGGVRISSTVPLSIDEATITSVLKEYKIHSADVVIREDITIERLIDALAGNRVYIPSLTVVNKIDLMDVDVADAIKVSAEKGINLDLLKEQIYRKLEFIRVYLKPPGGKVDFSEPMILRRGATVEDICRKLHRDFVENFRYAKVWGKSVKFDGQRVGLEHVVEDGDIITIYAEGHHHHHH
MSLKKIVIVGAGFAGVSATRLLAKNLKNDAEITVIDKHDFQTSMTQLHEVAASRVEADAVQYHLNRTIGKFNNVKVVKESLVELDKANKKVITDKNSYDYDYLVVSMGGEPNDFGVPGVNEYGFTLWSLEDALKIKAHLKEMVQAAAKEADSEKRKKLLTFSVAGSGFTGIEMAGELIDWRKKASKKYGIPESEFTINIVEMMPTIMNILDRSLADKALVYLQNKNINVLVNHGITAVAQDHITVNVGGRDEEKVVKEIPGNTLIWTTGVQGNTEAEACQLSETERGHRLQANEYMEAIGEENHGIYVAGDVSGYIVPENGRPTPQIVEAAEQTGSTAAKNIIADIKGGEKEGHHHHHH
MSLKKLLVIRNDKIGDFMLAWPSFAMLKASLPDCHITALVPKYTAALAELCPWIDAVIIDPGQQADKAQHKQLVQTVKAQQFDASINLFSTMYNALLVWKARIPYRLAPATKLAQIFYQHRIKQKRSQSAKPEYEYNLDLVRAFLRDIGQPIIEPNAPYLTFPAEQLAAQRSKLAEQLDIGPDKAWLFVHAGSGGSANNLSLEQYCELVTGVMDEHKQVVLTAGPGEEEKAAQLQSLLAEQGVLAALYAKNDGLVDFTRSLACAQLFIAGSTGPLHIAAALDVPTVGFFPAKRSATPLRWRPLNSQGKHIAFCPPPADDKANQENMGRIDMKSVLTELAPWLRSVQLEGHHHHHH
MSLKKNIYPNKEGCPVEFTLDVIGGKWKGILFYHMIDGKKRFNEFRRICPSITQRMLTLQLRELEADGIVHREVYHQVPPKVEYSLTEFGRTLEPIVLQMKEWGESNRDVLESYRSNGLVKDQQKEGGSHHHHHH
MSLKKRIFVTGGAEGIGRAIVEAFCKDGHQVAFCDINAVSGQQTARDTGAIFHPVDVSDKEALESCMQQILDEWKDIDIVINNVGISKFSSITETSVEDFDKILSVNLRPVFITSRLLAIHRKAQSDSNPYGRIINICSTRYLMSEPGSEGYAASKGGIYSLTHALALSLSEWNITVNSIAPGWIQTQNYDQLRPEDHSQHPSRRVGKPEDIARMCLFLCRDENDFINGENITIDGGMTKKMIYTEGHHHHHH
MSLKLIKGLNLLRPCSDTPFLENAFVVIDGDEFLSVGTTEPEGEFEEVLDCGGKFALPGLINAHHHLYSALAVGMPPPAKTPLNFTQILEEVWWKLDLALDHDATQASFESGLIDSLKAGTTTVIDHHCSPSFIEGSLSLLGDTGKKLGIATGLAFEVTDRNGQELFERSLQENLDAAEKHSQDQELAALLGLHASFTLSEESLKKVAEVHSKRSNWGIHTHLSEDRADEEDARNRGHASVVERLDHFGLINQSAMLIHGVHSLESDAELIQKHKAHLVHNPTSNANNRIGMLSNQAAERMKPGLGTDGMQSNMIREAKEGMLIRSSHMSAGDAGVDYQAILFDHNPRIASAVFGRSIGRVEPGYRADLAIYDYHPRTEVHSDNVFGHVFFGLGEPCDVMSGGLMRVQNHLLQGNDEQAAKQEAAEQSRKLWQKMQEGHHHHHH
MSLKLLHERMMHSLARYPRQTAVVDEQDALSYEALELRIREFVAMLCALGVGQGQRILLWAHKSVDLVAVMQAALRLGVVYVPVDPLSPVSRLEKIAGDSQAVLVLCTAARLEELAGSALAQVRSVVLDDPASAGYWRNIDTGSSVVPTLAIQPDDLAYILYTSGSTGVPKGVALSHGNALAFVDWACERYCFQPGERFANHAPLHFDLSVLDIYCALNVGATVCLVPESIAFSPRLLTDFIRQHEISIWYSVPSVLMMMMQDGDLLSDIQDTLRVLLFAGEPFPVKHLRDLRAAYADVRLANLFGPTETNVCTAFEVGAIDPERVLPVPIGTAASGNQVWAQKPDGSRCAVGEEGELVVQGPTVMLGYFAKPAQEGPYKTGDMVRQRPDGNYEYLGRRDDMLKVRGNRIERGEVEAALLAHPQVSEAAVLVVGEGMNAQLWGVLVAHTRDALSLIDLKRHCAQRLPRYMIIDKVLCLDALPRNANGKVDRFALARQVEGHHHHHH
MSLKLSNERAEWQAQMKKSVISEERQRLARDLHDAVSQQLFAISMMTSAVLEHVKDADDKTVKRIRMVEHMAGEAQNEMRALLLHLRPVTLEGKGLKEGLTELLDEFRKKQPIDIEWDIQDTAISKGVEDHLFRIVQEALSNVFRHSKASKVTVILGIKNSQLRLKVIDNGKGFKMDQVKASSYGLNSMKERASEIGGVAEVISVEGKGTQIEVKVPIFPEEKGENERDSSIIDEGHHHHHH
MSLKLTRLSLWHIPLTSHETYYMAGGKTCDTTMTTLIRLDTDSGLSGWGEVCPIPHYLPAYADGVAPALTELAPIILGADPLGAEALMERCNAYLLGHDYAKSALDIALWDITARAAGLPLHALLGGRAMADMPLYHSITCVAPDEMARIARDAQAQGMTQFQVKLGADGDWQADVARLSHVREAVGPGPLVYGDWNCGSDSLTASRVGRAVAHLDVMLEQPCRTIQECAAVRDATGLPMKLDETAHDIPSLLDGHRRGCMDAVALKLSKFGGLSATRRARDLCLALGTRMCIEDTWGSDVTTAALLHLAAATPARGLMNTCDLSHYVGPRLAPDGPTRHMGRIAPPEGPGLGITPDMDVLGTPQLILDEGHHHHHH
